# Laboratory results from patent publication US20060269550A1 (published 2006).
# Where no end group is shown, it is not given here. The star is where a group is joined. Octanoyl = CCCCCCCC(=O)*
# T1: rat ghrelin (full length, acylated) (rat, UniProt Q9QYH7 24-51, acylated (group and position not restated for the rat peptide))
# T1 construct: mature; the assay used the full-length ghrelin peptide
# T1 peptide (looked up): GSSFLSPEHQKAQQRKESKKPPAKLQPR
# B1: anti-hGhrelin Fab 2291 (Fab, V domains shown)
# VH: EIQLQQSGAELMKPGASVKLSCKATGYTFTGYWIEWAKQRPGHGLEWIGEILPGSGSTNYNEKFKGKATFTADTSSNTANMQLSSLTTEDSAIYYCARYPQFRLRRERIAYWGQGTLVTVSV
# VL: DLVLTQSPASLAVSLGQRATISCRASKSVSTSGYSYMHWYQQKPGQPPKLLIYLASNLEPGVPARFSGSGSGTDFTLNIHPVEEEDAATYYCQHSRELPYTFGAGTKLELKR
# notes: Mouse Fab, kappa light chain
# B2: Ghrelin (1-8), the first eight amino acids of human ghrelin acylated, via an ester linkage, with an octanoyl group on the serine at position 3 (peptide)
# peptide: GSS(Octanoyl)FLSPE
# notes: also called human ghrelin amino acids 1-8 acylated with octanoic acid
# How the values were obtained:
# [1] = target: B2; test: inferred by the filing from inhibition of the analog in the FLPR calcium assay
# [2] = target: T2, full-length human ghrelin acylated with an octanoyl group on the serine at position 3 (human, n-octanoyl group on Ser 3); test: SPR, BIAcore 2000, 25 C; Fab captured by goat anti-mouse kappa, ghrelin as analyte; koff/kon, average of three
# T2 construct: also called hGhrelin; acylated hGhrelin
# Protocol: (§1) The BIAcore® utilizes the optical properties of surface plasmon resonance to detect alterations in protein concentration of interacting molecules within a dextran biosensor matrix. Except where noted, all reagents and materials were purchased from BIAcore® AB (Upsala, Sweden). All measurements were performed at 25° C. Samples containing rat or human ghrelin (full length, acylated) were dissolved in HBS-EP buffer (150 mM sodium chloride, 3 mM EDTA, 0.005% (w/v) surfactant P-20, and 10 mM HEPES, pH 7.4). A capture antibody, goat anti-mouse Kappa (Southern Biotechnology, Inc), was immobilized onto flow cells using amine-coupling chemistry. Flow cells (1-4) were activated for 7 minutes with a 1:1 mixture of 0.1 M N-hydroxysuccinimide and 0.1 M 3-(N,N-dimethylamino)propyl-N-ethylcarbodiimide at a flow rate of 10 μl/min. Goat anti-mouse Kappa (30 μg/mL in 10 mM sodium acetate, pH 4.5) was manually injected over all 4 flow cells at a flow rate of 10 μL/min. The surface density was monitored and additional goat anti-mouse Kappa was injected if needed to individual cell until all flow cells reach a surface density of 4500-5000 response units (RU). Surfaces were blocked with a 7 minute injection of 1 M ethanolamine-HCl, pH 8.5(10 μL/min). To ensure complete removal of any noncovalently bound goat anti-mouse Kappa, 15 μL of 10 mM glycine, pH 1.5 was injected twice. Running buffer used for kinetic experiments contained 10 mM HEPES, pH 7.4, 150 mM NaCl, 0.005% P20.
# (§2) Collection of kinetic binding data was performed at maximum flow rate (100 μL/min) and a low surface density to minimize mass transport effects.
# [3] = target: T2, full-length human ghrelin acylated with …; test: cell-based or functional assay
# [4] = target: T1, rat ghrelin (full length, acylated); test: SPR, BIAcore 2000, 25 C; Fab captured by goat anti-mouse kappa, rat ghrelin as analyte; koff/kon, average of three
# Protocol: as §1, §2
# anti-hGhrelin Fab 2291 [5] = target: B1; test: competitive ELISA; competitor at 1 µg/ml preincubated with Fab 2291 0.1 µg/ml, OD of Fab bound to BSA-hGhrelin wells
# Protocol: (§3) Each well of a 96-well plate was coated with 60 μl BSA-hGhrelin antigen (i.e., BSA conjugated, full-length, acylated human ghrelin, 2 μg/ml in carbonate buffer, pH 9.6). The plate was incubated at 4° C. overnight. The wells were aspirated and washed twice with washing buffer (20 mM Tris-Cl, pH 7.4, 0.15 M NaCl, 0. 1% Tween 20). Compounds (i.e., human ghrelin or ghrelin analogs) were diluted into antibody solution. The antibody solution was mouse-anti-human ghrelin Fab. The ghrelin competitor concentration was varied as listed in Tables 2 and 3 below, but the Fab-concentration was kept constant at 0.1 μg/ml in blocking solution (10 mg/ml BSA in wash buffer). After a 1 hour incubation at room temperature, 50 μl of compound-antibody solution was added to BSA-hGhrelin coated wells in triplicate. The plates were incubated for 1 hour at room temperature. The wells were then washed three times with washing buffer.
# (§4) Peroxidase-conjugated secondary antibody (50 μl goat anti-mouse kappa HRP (Southern Biotech), diluted 1:2000 in blocking buffer) was added to each well and incubated for 1 hour at room temperature. The wells were then washed 4 times with washing buffer. Fifty microliters of chromogenic substrate (i.e., OPD substrate) was added to each well and allowed to develop at room temperature for 10 minutes. […] The absorbance of the wells was read at 490 nm. […]
# anti-hGhrelin Fab 2291 [6] = target: B1; test: competitive ELISA; competitor at 0.2 µg/ml preincubated with Fab 2291 0.1 µg/ml, OD of Fab bound to BSA-hGhrelin wells
# Protocol: as §3, §4
# anti-hGhrelin Fab 2291 [7] = target: B1; test: competitive ELISA; competitor at 5 µg/ml preincubated with Fab 2291 0.1 µg/ml, OD of Fab bound to BSA-hGhrelin wells
# Protocol: as §3, §4
# T2 sequence (peptide, as listed by the source): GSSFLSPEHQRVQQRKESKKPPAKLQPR
binding result [1],Kd [2] [nM],"IC50 (nM), FLPR calcium assay on AV12 cells expressing human GHS-R1a [3] [nM]",Kd [4] [nM],Ave. OD (anti-hGhrelin Fab 2291 [5]) [OD],Ave. OD (anti-hGhrelin Fab 2291 [6]) [OD],Ave. OD (anti-hGhrelin Fab 2291 [7]) [OD],Binder
binds,1.01,0.9,1.16,–,–,–,"anti-hGhrelin Fab 2891 (Fab, V domains shown, Mouse Fab, kappa light chain) VH: EIQLQQSGAELMKPGASVKLSCKATGYTFTGYWIEWVKQRPGHGLEWIGEILPGSGSTNYNEKFKGKATFTADTSSNTANMQLSSLTTEDSAIYYCARYPQFRLRRERIAYWGQGTLVTVSV VL: DLVLTQSPASLAVSLGQRATISCRASKSVSTSGYSYMHWYQQKPGQPPKLLIYLASNLESGVPARFSGSGSGTDFTLNIHPVEEEDAATYYCQHSRELPYTFGAGTKLELKR"
binds,3.38,1.9,5.42,–,–,–,"anti-hGhrelin Fab 2211 (Fab, V domains shown, Mouse Fab, kappa light chain) VH: EIQLQQSGAELMRPGASVKLSCKATGYTFTGYWIEWVKQRPGHGLEWIGEILPGSGSTNYNEKFKGKATFTADTSSNTANMQLSSLTTEDSAIYYCARYPQFGLRRERIAYWGQGTLVTVSV VL: DLVLTQSPASLAVSLGQRATISCRASKSVSTSGYSYMHWYQQKPGQPPKLLIYLASNLESGVPARFSGSGSGTDFTLNIHPVEEEDAATYYCQHSRELPYTFGAGTKLELKR"
binds,1.04,1.1,1.14,–,–,–,"anti-hGhrelin Fab 1111 (Fab, V domains shown, Mouse Fab from an Omniclonal library (immunised C57Bl/6 mice); kappa light chain (detected or captured with goat anti-mouse kappa)) VH: EIQLQQSGAELMKPGASVKLSCKATGYIFTGYWIEWVKQRPGHGLEWIGEILPGSGSTNYNEKFKGKATFTADTSSNTANMQLSSLTTEDSAIYYCARYPQFRLRRERIAYWGQGTLVTVSV VL: DLVLTQSPASLAVSLGQRATISCRASKSVSTSGYSYMHWYQQKPGQPPKLLIYLASNLESGVPARFSGSGSGTDFTLNIHPVEEEDAATYYCQHSRELPYTFGAGTKLELKR"
binds,1.08,0.8,1.68,–,–,–,B1
–,–,–,–,0.127,0.399,0.065,B2
